# According to publication PMC12373898 (Communications Biology, 2025):
# B1: His-GFP-Maspin-StrepII (natural protein)
# chain: MDALQLANSAFAVDLFKQLCEKEPLGNVLFSPICLSTSLSLAQVGAKGDTANEIGQVLHFENVKDVPFGFQTVTSDVNKLSSFYSLKLIKRLYVDKSLNLSTEFISSTKRPYAKELETVDFKDKLEETKGQINNSIKDLTDGHFENILADNSVNDQTKILVVNAAYFVGKWMKKFSESETKECPFRVNKTDTKPVQMMNMEATFCMGNIDSINCKIIELPFQNKHLSMFILLPKDVEDESTGLEKIEKQLNSESLSQWTNPSTMANAKVKLSIPKFKVEKMIDPKACLENLGLKHIFSEDTSDFSGMSETKGVALSNVIHKVCLEITEDGGDSIEVPGARILQHKDELNADHPFIYIIRHNKTRNIIFFGKFCSP
# Target: F-actin (pre-assembled, AlexaFluor-labeled) (rabbit, UniProt P68135 1-377, AlexaFluor-labeled actin added to the polymerisation)
# Assay: TIRF microscopy in vitro reconstitution
binder,measurement,value
B1,binding result,binds
